Assay results as given in patent US20210369812A1, “OSTEOINDUCTIVE PEPTIDES, COMPOSITIONS, IMPLANTS, AND METHODS OF USE” (The Board of Regents of the University of Oklahoma, priority 2018, published 2021).
“Also recorded” adds a separate entry of the source.

Tests used:
BMPR1A [1] = biological target: T1, BMPR1A (Homo sapiens, UniProt P36894); assay: Biopanning of Ph.D.-12 phage library on immobilized BMPR1A-Fc; assay type: binding; conditions: peptide displayed on p3 of M13 phage; 3 rounds of panning
T1 construct: purchased G&P Biosciences
Method: (§1) The Ph.D.™-12 phage library was diluted in tris-buffered saline mixed with Tween-20 (TBS+0.1% v/v Tween-20 and abbreviated TBST) for a final concentration of 2×10^11 phage in 1 mL of TBST. The diluted library was then pipetted onto one of the wells of a 12-well poly-L-lysine plate followed by rocking the plate gently for 60 minutes at room temperature. […] This supernatant served as the starting phage library for subsequent binding selections. The phages which stuck to the plate were discarded.
(§2) This procedure is only applicable if the charge of the desired protein to be immobilized is negative, determined by checking the pI value of the protein. […]. This procedure was written for 12-well plates coated in poly-L-lysine (positively charged). Separate solutions of BMPR1A-Fc and BMPR2-Fc were prepared at 80 μg/ml in Tris-buffered saline (pH 7.5). In separate wells and on separate poly-L-lysine coated 12-well plates, 0.3 ml of each solution of receptor was added. The solutions of BMPR1A-Fc and BMPR2-Fc were swirled around the plate surface until the entire surface was wet. The plates were then incubated overnight at 4° C. with gentle agitation in a humidified container (a sealed plastic box with damp paper towels). Each individual receptor was now immobilized.
(§3) The following selection procedure is based off of the direct coating procedure outlined in the Ph.D.™-12 Phage Display Libraries instructional manual (New England Biolabs) with some alterations. This procedure was carried out after immobilizing the targets BMPR1A-Fc and BMPR2-Fc in a 12-well poly-L-lysine coated plate. A stock solution of tetracycline was prepared (20 mg/ml in 1:1 ethanol:water). The coating solution containing the target receptors was poured off followed by firmly slapping the plates face down on a clean paper towel. Each well was then filled with blocking buffer (0.1 M NaHCO3 (pH 8.6), 5 mg/mL BSA, 0.02% NaN3. Filter sterilize, store at 4° C.) and incubated for 1 hour at 4° C. The blocking solution was then poured off followed by firmly slapping the plates down against a clean paper towel. Each plate was washed rapidly 6 times with Tris-buffered saline mixed with Tween-20 (TBS+0.1% v/v Tween-20). The plate was slapped against a clean paper towel each time. 1 ml of the phage library created from the negative selection process was then pipetted onto each of the target coated wells. The plates were then rocked gently at room temperature for 60 min. The non-binding phages were then discarded by pouring off the supernatant and slapping the plate face-down on a clean paper towel. The plate was then washed 10 times with TBST followed by slapping the plate face-down on a clean paper towel each time (a clean section of paper towel was used each time to prevent cross-contamination). The bound phages were then eluted by incubating with a nonspecific disruption buffer (0.2 M Glycine-HCl (pH 2.2), 1 mg/ml bovine serum albumin (BSA) for 15 minutes. The eluate (immersed in the disruption buffer) was then pipetted into a microcentrifuge tube followed by neutralization with 150 μl of 1 M Tris-HCl (pH 9.1). A small portion (˜1 μl) of this eluate could be titered and sequenced if desired. The rest of the eluate was amplified (see amplification of phage library section). Once amplified, the eluate was also titered. Determine the concentration of amplified phages by counting the blue plaques in titering as described. Dilute the amplified library to contain 2×10^11 phages in 1 mL of TBS (as little as 10^9 plaque forming units per ml can be used if there is not enough). A second poly-L-lysine 12-well plate was then coated with the target receptors to allow for a second round of biopanning carried out using the same steps except that the Tween-20 concentration in the wash steps was raised to 0.5% (v/v). The eluate from the second round was then amplified, titered and used in an additional 3rd round of panning on newly receptor coated plates. […]

BMPR2 = biological target: T2, BMPR2 (Homo sapiens, UniProt Q13873); assay: Biopanning of Ph.D.-12 phage library on immobilized BMPR2-Fc; assay type: binding; conditions: peptide displayed on p3 of M13 phage; 3 rounds of panning
T2 construct: purchased G&P Biosciences
T2 sequence (Q13873 27-150 limits assumed): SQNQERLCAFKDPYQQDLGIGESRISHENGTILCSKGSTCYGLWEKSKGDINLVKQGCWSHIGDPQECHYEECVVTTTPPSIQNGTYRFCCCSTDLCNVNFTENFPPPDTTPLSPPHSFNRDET
Method: as §1, §2, §3

BMPR1A [2] = biological target: T1, BMPR1A; assay: Enzyme-linked immune sorbent assay for receptor binding (BMPR1A); conditions: peptide on p3 of M13 phage; absorbance 450 nm; n=4; vs wild type phage
From the text: Groups having the same lowercase letter assigned (above the bar) were not statistically different from each other. Groups having different letters assigned (above the bar) were statistically different from each other. […] The primary antibody was mouse anti-g3p (p8) IgG. The secondary antibody was anti-mouse IgG conjugated with horseradish peroxidase. The substrate, 3,3′,5,5′-Tetramethylbenzidine was detected at 450 nm after stopping the reaction with 1 M HCl.
Blocking buffer (0.1 M NaHCO3 (pH 8.6), 5 mg/ml BSA. Filter sterilized, stored at 4° C.) was prepared. TBS (50 mM Tris-HCl (pH 7.5), 150 mM NaCl, autoclaved, stored at room temperature) was prepared. Separate solutions of the target receptors were then made. For BMPR1A, a 10 μg/ml stock solution was made. For BMPR2, a 10 μg/ml solution was also made. Separate wells with n=4 for each different peptide bearing phage group were then coated with one of the receptors. The coating was done by adding 100 μl of the target solution to wells of a 96-well plate followed by swirling until the surface was completely wet. The plates were then allowed to incubate overnight at 4° C. with gentle agitation in a humidified container (a plastic box lined with damp paper towels). Any excess target solution was then removed, and the plate was slapped face-down on a clean paper towel. The wells of the plate were then blocked with 200 μl of blocking buffer for 1 hour at room temperature. […] The blocking buffer was then removed from each plate followed by 5 washes with 200 μl of TBST. Each time the plate was slapped against a clean section of paper towel face-down. […] After a brief pilot test, it should be noted that using 10^10 phage/ml was determined to work best, but other concentrations of virus also worked consistently. […] Then, […] of freshly prepared 3,3′,5,5′-Tetramethylbenzidine (TMB) was added to each well and the absorbance at 370 nm and 652 nm was monitored for 1 hour using an ELISA plate reader. […] The absorbance at 450 nm for each well was then measured.

T1 sequence (P36894 24-152 limits assumed): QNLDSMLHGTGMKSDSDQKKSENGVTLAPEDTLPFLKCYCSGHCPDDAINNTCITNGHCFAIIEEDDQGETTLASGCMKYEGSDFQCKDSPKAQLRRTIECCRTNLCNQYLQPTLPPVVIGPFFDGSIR

Sequence | Binding to BMPR1A found by biopanning (frequency among sequenced plaques) (BMPR1A [1]) | Binding to BMPR2 found by biopanning (frequency among sequenced plaques) (BMPR2) | Relative binding strength in ELISA to BMPR1A (BMPR1A [2])
SGTQDSMVGWNK (Completely synthesized in the lab - Ph.D.-12 Phage Display Peptide Library Kit (New England Biolabs)) | showed up as a result of biopanning on both BMPR1A alone and BMPR2 alone; also recorded: discovered to bind | showed up as a result of biopanning on both BMPR1A alone and BMPR2 alone; also recorded: discovered to bind | best binders
VHVPLHRGAVSA (Completely synthesized in the lab - Ph.D.-12 Phage Display Peptide Library Kit (New England Biolabs)) | discovered to bind | discovered to bind | best binders
